Assay results as given in patent US20250270304A1 (PHENOMIC AI, published 2025).
Changes are numbered by the printed parent chain.

T1: Latent Activin A (human, UniProt P08476 21-426, limits assumed)
T1 construct: also called INHBA latent
T1 sequence: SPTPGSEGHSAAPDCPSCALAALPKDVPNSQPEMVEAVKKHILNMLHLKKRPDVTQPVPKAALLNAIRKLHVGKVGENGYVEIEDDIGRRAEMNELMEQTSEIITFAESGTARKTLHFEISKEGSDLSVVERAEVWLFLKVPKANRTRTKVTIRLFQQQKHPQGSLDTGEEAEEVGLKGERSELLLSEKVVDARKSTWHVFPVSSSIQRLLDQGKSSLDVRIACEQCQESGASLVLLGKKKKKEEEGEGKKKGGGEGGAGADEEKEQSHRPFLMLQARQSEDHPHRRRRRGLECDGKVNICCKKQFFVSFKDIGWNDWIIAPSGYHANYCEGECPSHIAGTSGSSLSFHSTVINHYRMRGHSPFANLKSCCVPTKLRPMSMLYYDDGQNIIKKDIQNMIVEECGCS

T2: Mature Activin A (human, UniProt P08476 311-426)
T2 construct: also called active Activin A; INHBA mature
T2 sequence: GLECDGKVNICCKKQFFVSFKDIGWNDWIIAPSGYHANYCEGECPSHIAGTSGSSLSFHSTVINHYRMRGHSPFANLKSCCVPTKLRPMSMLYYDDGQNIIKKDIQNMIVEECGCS

T3: Inhibin A (Homo sapiens (Human), UniProt P05111 233-366; P08476 311-426)
T3 sequence 1: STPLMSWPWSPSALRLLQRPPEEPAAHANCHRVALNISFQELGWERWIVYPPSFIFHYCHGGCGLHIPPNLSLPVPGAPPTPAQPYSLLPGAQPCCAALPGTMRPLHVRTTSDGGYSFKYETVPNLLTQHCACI
T3 sequence 2: T2 sequence

T4: Activin B (Homo sapiens (Human), UniProt P09529 293-407)
T4 construct: also called Mature Activin B; mature Activin B
T4 sequence: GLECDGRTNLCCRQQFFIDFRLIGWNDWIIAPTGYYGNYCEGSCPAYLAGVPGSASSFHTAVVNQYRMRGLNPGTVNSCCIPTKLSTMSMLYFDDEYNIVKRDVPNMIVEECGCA

B1: AB430 (antibody, IgG1, V domains shown)
VH: EVQLVESGGGLVQPGGSLRLSCAASGFTLSNYPMSWVRQAPGKGLELVASTTSGSSTIYYPDSVKGRFTISRDNAKNSLYLQMNSLRAEDTAVYYCARGPDYYAPLRSYMDVWGKGTTVTVSS
VL: DIVMTQSPLSLPVTPGEPASISCRSSQSLQQSEGRTYLHWYLQKPGQSPQLLIYDASKRASGVPDRFSGSGSGTDFTLKISRVEAEDVGVYYCMQVLRTPITFGGGTKVEIK
B2: AB330 (antibody, IgG1, V domains shown)
VH: QVQLVQSGAEVKKPGASVKVSCKVSGYPSPATISWVRQAPGKGLEWMGWMNPKSGYTNYAQKFQGRVTMTEDTSTDTAYMELSSLKSEDTAVYYCATLHGSGLAFDIWGQGTMVTVSS
VL: DIQMTQSPSSVSASVGDRVTITCRASQDIKSDLAWYQQKPGKAPKLLIYRASARESGVPSRFSGSGSGTDFTLTISSLQPEDFANYYCQQYRSFPWSFGGGTKVEIK
notes: also called mAb 330
B3: AB344 (antibody, IgG1, V domains shown)
VH: EVQLVESGGGLVQPGGSLRLSCAASGYTFSNYGMSWVRQAPGKGLELVASISKSGSSIYYPDSVKGRFTISRDNAKNSLYLQMNSLRAEDTAVYYCARLPRLAWNYYYGMDVWGQGTTVTVSS
VL: DIVMTQSPLSLPVTPGEPASISCRSSRSLVHGSGDNYLHWYLQKPGQSPQLLIYMASNRAPGVPDRFSGSGSGTDFTLKISRVEAEDVGVYYCVQTLQTPSTFGGGTKVEIK
B4: AB341 (antibody, IgG1, V domains shown)
VH: B3 VH
VL: B1 VL with Q30L, Q31H, E33N, G34E, R35K, T36N, M94V, V96D, R98H, I101F
B5: AB448 (antibody, IgG1, V domains shown)
VH: QVQLQESGPGLVKPSQTLSLTCTVSGLSLSNAKMGVNWIRQPPGKGLEWIGYVSTTGTTDYNPSLKSRVTMSVDTSKNQFSLKVNSVTAADTAVYYCARAGYPDVWGKGTTVTVSS
VL: DIQMTQSPSSVSASVGDRVTITCRASQNIGAALAWYQQKPGKAPKLLIYGASTREYGVPSRFSGSGSGTDFTLTISSLQPEDFANYYCQQYTAYPLTFGGGTKVEIK
B6: AB366 (antibody, IgG1, V domains shown)
VH: B5 VH with L27Y, S30T, N31D, K33R, M34I, V53I, S54N, T55P, T56S, T58R
VL: DIQMTQSPSSVSASVGDRVTITCRASQTISRSLAWYQQKPGKAPKLLIYDASSLAGGVPSRFSGSGSGTDFTLTISSLQPEDFANYYCQQYSSYPSLFGGGTKVEIK
B7: AB426 (antibody, IgG1, V domains shown)
VH: EVQLVESGGGLVQPGGSLRLSCAASGFTFSDHHMSWVRQAPGKGLELVASISPSGDFTYYPDSVKGRFTISRDNAKNSLYLQMNSLRAEDTAVYYCARDVSPVYYWGQGALVTVSS
VL: DIVMTQSPLSLPVTPGEPASISCRSSQSLLHWYLQKPGQSPQLLIYMGSQRAAGVPDRFSGSGSGTDFTLKISRVEAEDVGVYYCQSGVTFGGGTKVEIK
B8: AB345 (antibody, IgG1, V domains shown)
VH: EVQLVESGGGLVQPGGSLRLSCAASGFTSSGYWMSWFRQAPGKGLELVASIGTAGVTYYPDSVKGRFTISRDNAKNSLYLQMNSLRAEDTAVYYCARGPHGPQQRLRFDPWGQGTLVTVSS
VL: DIVMTQSPLSLPVTPGEPASISCRSSQSLLSSYGYHNLHWYLQKPGQSPQLLIYMGSIRAPGVPDRFSGSGSGTDFTLKISRVEAEDVGVYYCMQGTQAPRTFGGGTKVEIK
B9: AB439 (antibody, IgG1, V domains shown)
VH: EVQLVQSGAEVKKPGASVKVSCKASGYTYTGYRISWVRQAPGQGLEWMGWIDPKSGRTNYAQKLQGRGTMTTDPSTSTAYMELRSLRSDDTAVYYCAREVKQWLVPGRGVYWFDPWGQGTLVTVSS
VL: ESALTQPASVSGSPGQSITISCTGTNIGLRSVSWYQQHPGKAPKLMIYDTNIRSSGVSNRFSGSKSGNTASLTISGLQAEDEADYYCSSYTSSSTDVFGGGTKLTVL
B10: AB438 (antibody, IgG1, V domains shown)
VH: QVQLQESGPGLVKPSQTLSLTCTVSGVSLSNARLGVNWIRQPPGKGLEWIGYGSVTGSTDYNPSLKSRVTMSVDTSKNQFSLKVNSVTAADTAVYYCTTSYLVDTAMVTRWGQGTLVTVSS
VL: EIVMTQSPATLSLSPGERATLSCRASQSLGTNLAWYQQKPGQAPRLLIYGASSRPSGIPARFSGSGSGTDFTLTISSLEPEDFAVYYCQQYDTHPLSFGGGTKVEIK
B11: AB349 (antibody, IgG1, V domains shown)
VH: B10 VH
VL: EIVMTQSPATLSLSPGERATLSCRASQRIGSDLAWYQQKPGQAPRLLIYSASSRAPGIPARFSGSGSGTDFTLTISSLEPEDFAVYYCSTMAIPFGGGTKVEIK
B12: AB431 (antibody, IgG1, V domains shown)
VH: EVQLVESGGGLVQPGGSLRLSCAASGFTSSNHWMSWVRQAPGKGLELVASIGPKGLGTYYPDSVKGRFTISRDNAKNSLYLQMNSLRAEDTAVYYCARDVRGWRALYYYYGMDVWGQGTTVTVSS
VL: DIVMTQSPLSLPVTPGEPASISCRSSQSLLHVTGYNYLHWYLQKPGQSPQLLIYGASSRAAGVPDRFSGSGSGTDFTLKISRVEAEDVGVYYCMQSTQWPHTFGGGTKVEIK
notes: also called mAb 431
B13: AB428 (antibody, IgG1, V domains shown)
VH: EVQLVESGGGLVQPGGSLRLSCAASGFTSSNHWMSWVRQAPGKGLELVASIGPKGLGTYYPDSVKGRFTISRDNAKNSLYLQMNSLRAEDTAVYYCASIRDYGDKKGGSWFDPWGQGTLVTVSS
VL: DIVMTQSPLSLPVTPGEPASISCRSSQSLLHSSGYNFLHWYLQKPGQSPQLLIYMATNRASGVPDRFSGSGSGTDFTLKISRVEAEDVGVYYCVQDLHTLPQFGGGTKVEIK

These binders were tested against T1, Latent Activin A (assay: ELISA, coated antigen, OD450).
Method: (§1) Antibodies were re-expressed in 40 mL cultures of Expi293 cells and purified using protein G magnetic sepharose beads (Cytiva, Marlborough, MA) to provide larger quantities for secondary screening. Secondary screening included dose responses in both functional assays described above (SMAD nuclear localization and fibroblast activations assays) as well as in binding assays to the same antigens listed in Table 3. Plates were coated with 25 μL of 3 μg/mL antigen in 384-well Maxisorp plates overnight at 4° C. with agitation. The next day, the samples in the plates were blocked with 70 μL blocking buffer (PBS+1% BSA+0.1% Tween-20) for 2 hours at room temperature. Plates were then washed three times with 100 μL of wash buffer (PBS+0.1% Tween-20). Primary antibodies in Expi293 expression medium were diluted 1:3 in blocking buffer, 25 μL added per well, and the plates were incubated for an hour at room temperature with agitation. Plates were then washed three times and 25 μL of secondary antibody (goat anti-Human IgG, HRP conjugated; Jackson Immunoresearch) diluted 1:5000 in blocking buffer was added for 30 minutes at room temperature. The wells in the plates were washed six times with wash buffer and TMB substrate was added followed by 1 M H3PO4.

Binder | fold-change of OD 450 over negative control (BSA)
B1 | 7.44 fold
B2 | 0.75 fold
B3 | 2.35 fold
B4 | 4.09 fold
B5 | 2.74 fold
B6 | 10.3 fold
B7 | 4.81 fold
B8 | 8.12 fold
B9 | 1.45 fold
B10 | 2.34 fold
B11 | 4.34 fold
B12 | 1 fold
B13 | 5.93 fold

These binders were tested against T2, Mature Activin A (assay: ELISA, coated antigen, OD450).
Method: as §1

Binder | fold-change of OD 450 over negative control (BSA)
B1 | 7.58 fold
B3 | 3.18 fold
B4 | 6.71 fold
B5 | 3.34 fold
B6 | 13.1 fold
B7 | 4.66 fold
B8 | 9.47 fold
B9 | 1.45 fold
B10 | 2.83 fold
B11 | 5.14 fold
B12 | 1.04 fold
B13 | 6.34 fold

What follows are binders tested against T3, Inhibin A (assay: ELISA, coated antigen, OD450).
Method: as §1

Binder | fold-change of OD 450 over negative control (BSA)
B1 | 0.86 fold
B2 | 0.97 fold
B3 | 1.18 fold
B4 | 0.81 fold
B5 | 0.77 fold
B6 | 0.72 fold
B7 | 4.84 fold
B8 | 3.43 fold
B10 | 0.23 fold
B11 | 0.22 fold
B12 | 1.13 fold
B13 | 3.09 fold

The binders below were run against T4, Activin B (assay: ELISA, coated antigen, OD450).
Method: as §1

Binder | fold-change of OD 450 over negative control (BSA)
B1 | 0.51 fold
B2 | 0.61 fold
B3 | 0.75 fold
B4 | 0.98 fold
B5 | 0.69 fold
B6 | 0.86 fold
B7 | 0.51 fold
B8 | 0.76 fold
B10 | 0.15 fold
B11 | 0.27 fold
B12 | 0.96 fold
B13 | 0.72 fold
